{"source": "patent US20240245793A1", "about": "(UNIVERSITY OF COPENHAGEN, published 2024)", "note": "No end group written: not given here. OPEG4 = PEG4 linker (Xa = -O-, formula XXVI) joining two peptide copies; NPEG4 = not defined here", "data": [{"target": "T1, PDZ1-2 of PSD-95 (postsynaptic density protein-95) (UniProt P78352 61-249, limits assumed)", "T1 construct": "domain: PDZ1-2; also called PSD-95 PDZ1-2; PSD-95 PDZ12", "T1 sequence (P78352 61-249 limits assumed)": "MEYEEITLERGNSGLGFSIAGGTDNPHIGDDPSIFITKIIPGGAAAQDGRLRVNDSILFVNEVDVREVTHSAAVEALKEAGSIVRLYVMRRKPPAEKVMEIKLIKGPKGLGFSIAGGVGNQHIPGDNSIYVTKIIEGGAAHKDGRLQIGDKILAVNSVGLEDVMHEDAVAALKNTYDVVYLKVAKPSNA", "assay": "FP competition against fluorescent dimeric probe, Ki from IC50", "units": {"Ki": "nM"}, "values": [{"binder": "OPEG4-ISTDV (also: dimer: two ISTDV copies joined at their N-termini by the OPEG4 linker, Dimer of formula (XXXIII), P1 = P2, no CPP)", "note": "[compound 6, OPEG4-(ISTDV)2]", "Ki": 53.1}, {"binder": "OPEG4-KETVV (also: dimer: two copies bridged at N-termini by OPEG4, Dimer of formula (XXXI), P1 = P2, no CPP)", "note": "[compound 4, OPEG4-(KETVV)2]", "Ki": 15.8}, {"binder": "OPEG4-KETRV (also: dimer: two KETRV copies joined at their N-termini by the OPEG4 linker, Dimer of formula (XXXII), P1 = P2, no CPP)", "note": "[compound 5, OPEG4-(KETRV)2]", "Ki": 53.2}, {"binder": "OPEG4-VETVV (also: dimer: two VETVV copies joined at their N-termini by the OPEG4 linker, Dimer of formula (XXXIV), P1 = P2, no CPP)", "note": "[compound 7, OPEG4-(VETVV)2]", "Ki": 17}, {"binder": "OPEG4-KETLV (also: dimer: two copies bridged at N-termini by OPEG4, Dimer of formula (XXIX), P1 = P2, no CPP)", "note": "[compound 2, OPEG4-(KETLV)2]", "Ki": 11.1}]}, {"target": "T1, PDZ1-2 of PSD-95 (postsynaptic density …)", "assay": "FP competition against fluorescent dimeric probe, Ki from IC50", "remark": "another data set of the same source", "units": {"Ki": "nM"}, "values": [{"binder": "compound 27, NPEG4-(KETVV)2 fused to L-Arg9 (Ac-RRRRRRRRR-) (not fully specified (N-terminus, C-terminus); also: dimer: two copies bridged at N-termini by NPEG4, Arg9 C-terminus on NPEG4 nitrogen, Branched compound CPP-NPEG4-(P1)(P2), formula (XXVIII); also called formula (XIX)) peptide: KETVV Ac-RRRRRRRRR", "Ki": 6.3}, {"binder": "compound 33, NPEG4-(VETVV)2 fused to L-Arg9 (Ac-RRRRRRRRR-) (not fully specified (N-terminus, C-terminus); also: dimer: two copies bridged at N-termini by NPEG4, Arg9 C-terminus on NPEG4 nitrogen, also called formula (XXII)) peptide: VETVV Ac-RRRRRRRRR", "Ki": 19.9}, {"binder": "compound 25, NPEG4-(KETTV)2 fused to L-Arg9 (Ac-RRRRRRRRR-) (not fully specified (N-terminus, C-terminus); also: dimer: two copies bridged at N-termini by NPEG4, Arg9 C-terminus on NPEG4 nitrogen, Branched compound CPP-NPEG4-(P1)(P2), formula (XXVIII); also called formula (XVIII)) peptide: KETTV Ac-RRRRRRRRR", "Ki": 5.6}, {"binder": "compound 29, NPEG4-(KETRV)2 fused to L-Arg9 (Ac-RRRRRRRRR-) (not fully specified (N-terminus, C-terminus); also: dimer: two copies bridged at N-termini by NPEG4, Arg9 C-terminus on NPEG4 nitrogen, Branched compound CPP-NPEG4-(P1)(P2), formula (XXVIII); also called formula (XX)) peptide: KETRV Ac-RRRRRRRRR", "Ki": 10.1}, {"binder": "compound 31, NPEG4-(ISTDV)2 fused to L-Arg9 (Ac-RRRRRRRRR-) (not fully specified (N-terminus, C-terminus); also: dimer: two copies bridged at N-termini by NPEG4, Arg9 C-terminus on NPEG4 nitrogen, Branched compound CPP-NPEG4-(P1)(P2), formula (XXVIII); also called formula (XXI)) peptide: ISTDV Ac-RRRRRRRRR", "Ki": 62.3}]}, {"target": "T1, PDZ1-2 of PSD-95 (postsynaptic density …)", "assay": "FP competition against fluorescent dimeric probe, Ki from IC50", "remark": "another data set of the same source", "units": {"Ki": "nM"}, "values": [{"binder": "compound 50, NPEG4-(IETDV)2 fused to L-DPV3 (Ac-RKKRRRESRKKRRRES-) (reading uncertain; also: two IETDV copies joined at their N-termini by the NPEG4 linker, CPP C-terminus linked to the NPEG4 nitrogen, printed as NPEG4-(IETDV)2 fused to L-DPV3 (Ac-RKKRRRESRKKRRRES-), Branched compound CPP-NPEG4-(P1)(P2), formula (XXVIII)) peptide: NPEG4-IETDV Ac-RKKRRRESRKKRRRES-NPEG4", "Ki": 16.6}, {"binder": "compound 52, NPEG4-(IETDV)2 fused to L-pVEC (Ac-LLIILRRRIRKQAHAHSK-) (reading uncertain; also: two IETDV copies joined at their N-termini by the NPEG4 linker, CPP C-terminus linked to the NPEG4 nitrogen, printed as NPEG4-(IETDV)2 fused to L-pVEC (Ac-LLIILRRRIRKQAHAHSK-), Branched compound CPP-NPEG4-(P1)(P2), formula (XXVIII)) peptide: NPEG4-IETDV Ac-LLIILRRRIRKQAHAHSK-NPEG4", "Ki": 13.3}]}, {"target": "T1, PDZ1-2 of PSD-95 (postsynaptic density …)", "assay": "FP competition against fluorescent dimeric probe, Ki from IC50", "remark": "another data set of the same source", "units": {"Ki": "nM"}, "values": [{"binder": "compound 71, NPEG4-(KETLV)2 fused to L-Arg5 (Ac-RRRRR-) (reading uncertain; also: two KETLV copies joined at their N-termini by the NPEG4 linker, CPP C-terminus linked to the NPEG4 nitrogen, printed as NPEG4-(KETLV)2 fused to L-Arg5 (Ac-RRRRR-), Branched compound CPP-NPEG4-(P1)(P2), formula (XXVIII)) peptide: NPEG4-KETLV Ac-RRRRR-NPEG4", "Ki": 10.9}, {"binder": "compound 73, NPEG4-(KETLV)2 fused to L-Arg4 (Ac-RRRR-) (reading uncertain; also: two KETLV copies joined at their N-termini by the NPEG4 linker, CPP C-terminus linked to the NPEG4 nitrogen, printed as NPEG4-(KETLV)2 fused to L-Arg4 (Ac-RRRR-)) peptide: NPEG4-KETLV Ac-RRRR-NPEG4", "Ki": 11.1}, {"binder": "compound 67, NPEG4-(KETLV)2 fused to L-Arg7 (Ac-RRRRRRR-) (reading uncertain; also: two KETLV copies joined at their N-termini by the NPEG4 linker, CPP C-terminus linked to the NPEG4 nitrogen, printed as NPEG4-(KETLV)2 fused to L-Arg7 (Ac-RRRRRRR-), Branched compound CPP-NPEG4-(P1)(P2), formula (XXVIII)) peptide: NPEG4-KETLV Ac-RRRRRRR-NPEG4", "Ki": 5.8}]}]}
